# Measured values taken from IntAct's records for PubMed 17289029.
# B1: Zinc finger protein GLIS2 (Homo sapiens), Q9BZE0 (parent)
# chain: MHSLDEPLDLKLSITKLRAAREKRERTLGVVRPRALHRELGLVDDSPTPGSPGSPPSGFLLNSKFPEKVEGRFSAAPLVDLSLSPPSGLDSPNGSSSLSPERQGNGDLPPVPSASDFQPLRYLDGVPSSFQFFLPLGSGGALHLPASSFLTPPKDKCLSPDLPLPKQLVCRWAKCNQLFELLQDLVDHVNDYHVKPEKDAGYCCHWEGCARHGRGFNARYKMLIHIRTHTNEKPHRCPTCSKSFSRLENLKIHNRSHTGEKPYVCPYEGCNKRYSNSSDRFKHTRTHYVDKPYYCKMPGCHKRYTDPSSLRKHIKAHGHFVSHEQQELLQLRPPPKPPLPAPDGGPYVSGAQIIIPNPAALFGGPGLPGLPLPLAPGPLDLSALACGNGGGSGGGGGMGPGLPGPVLPLNLAKNPLLPSPFGAGGLGLPVVSLLAGAAGGKAEGEKGRGSVPTRALGMEGHKTPLERTESSCSRPSPDGLPLLPGTVLDLSTGVNSAASSPEALAPGWVVIPPGSVLLKPAVVN
# Variants of: B1
# Conditions: with ctnb1_human CTNNB1, P35222
# ctnb1_human CTNNB1, P35222, sequence (P35222 whole entry): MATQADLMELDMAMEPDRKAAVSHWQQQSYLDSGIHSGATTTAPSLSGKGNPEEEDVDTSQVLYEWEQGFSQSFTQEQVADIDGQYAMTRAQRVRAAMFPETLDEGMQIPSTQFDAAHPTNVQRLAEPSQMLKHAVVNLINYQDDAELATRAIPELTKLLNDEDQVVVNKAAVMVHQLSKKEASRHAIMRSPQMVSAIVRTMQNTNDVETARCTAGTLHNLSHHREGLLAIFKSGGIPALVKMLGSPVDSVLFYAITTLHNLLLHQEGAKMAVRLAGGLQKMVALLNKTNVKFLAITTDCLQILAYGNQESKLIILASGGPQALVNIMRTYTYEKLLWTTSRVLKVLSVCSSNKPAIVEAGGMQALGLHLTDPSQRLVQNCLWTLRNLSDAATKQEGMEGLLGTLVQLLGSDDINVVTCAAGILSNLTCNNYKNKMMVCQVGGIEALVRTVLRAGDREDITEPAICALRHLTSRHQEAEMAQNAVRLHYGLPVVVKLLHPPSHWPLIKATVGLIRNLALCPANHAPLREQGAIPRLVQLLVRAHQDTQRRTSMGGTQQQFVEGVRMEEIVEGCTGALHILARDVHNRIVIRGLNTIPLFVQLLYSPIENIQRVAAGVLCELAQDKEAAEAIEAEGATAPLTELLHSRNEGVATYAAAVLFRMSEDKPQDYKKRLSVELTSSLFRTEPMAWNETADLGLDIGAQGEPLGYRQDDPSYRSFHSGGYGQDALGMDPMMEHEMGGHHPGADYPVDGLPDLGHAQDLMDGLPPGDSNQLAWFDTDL
row,effect of a mutation on the interaction,Variant
1,disrupting interaction,C175A
